Article PMC6805997 (mBio, 2019)

Tests used:
[1] = target: T1, recombinant IsdB (iron-regulated surface determinant protein B), without signal peptide and sorting signal (Staphylococcus aureus, UniProt A6QG30); test: BLI; conditions: both partners purified
T1 construct: source: E. coli BL21(DE3), pET15b, purified (HiTrap Talon column)

[2] = target: T1, recombinant IsdB (iron-regulated …); test: ELISA; conditions: both partners purified

T1 sequence (A6QG30 41-613): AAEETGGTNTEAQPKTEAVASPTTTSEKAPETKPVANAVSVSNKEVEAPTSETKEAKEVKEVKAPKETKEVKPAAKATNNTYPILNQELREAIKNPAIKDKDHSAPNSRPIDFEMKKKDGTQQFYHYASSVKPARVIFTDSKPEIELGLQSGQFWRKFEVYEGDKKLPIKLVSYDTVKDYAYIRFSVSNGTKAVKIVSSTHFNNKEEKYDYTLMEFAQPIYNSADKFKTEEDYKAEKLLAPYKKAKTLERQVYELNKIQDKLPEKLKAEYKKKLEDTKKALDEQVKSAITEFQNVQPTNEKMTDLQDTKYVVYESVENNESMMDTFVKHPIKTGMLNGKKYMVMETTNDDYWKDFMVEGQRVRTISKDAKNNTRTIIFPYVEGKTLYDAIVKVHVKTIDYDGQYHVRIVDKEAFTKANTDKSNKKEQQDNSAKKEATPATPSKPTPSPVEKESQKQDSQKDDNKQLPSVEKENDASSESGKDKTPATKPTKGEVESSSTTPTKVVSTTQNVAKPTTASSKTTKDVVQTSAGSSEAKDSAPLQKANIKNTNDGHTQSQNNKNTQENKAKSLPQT

B1: STAU-307 clonal variant 1 (antibody, V domains shown)
VH: QAQLMQSGAEVKKTGSSVKVSCTASGGTFNTNDLMWVRQAPGQGLEWMGGIVPVFGKPKYAKKFHGRLIITADEYMTTVYMELTSLTFDDTAIYFCARSGSTESPIQDIDFWGQGTQVTVSS
VL: SYVLTQPPSVSVAPGQTATITCGGDNIATFSVHWYRQKPGQAPVLVVYDDLDRASGIPARFSGSNSGNTATLTISRVEPGDEADYFCQVWEISSDEYVFGPGTSVTVL
notes: also called Variant 1 (STAU-307)
[1]
  binding result: binds

B2: STAU-399 clonal variant 6 (recombinant mAb) (antibody, V domains shown)
VH: HVQLVQSGAEVKKPGSSLKVSCKGSGGKLRGYGFSWGRQAPGQGLEWMGVIIPIFGAPTYAQKFQGRVTLAADESNNTVFMELSSLRSEDTAVYYCARDWPSITVAVDATNYGMDVWGQGTTVTVSS
VL: QSALTQPRSVSGSPGQSVTISCTGTSNDVGYYDHVSWYQQHPGKAPKFIIYDVSKRPSGVPDRFSGSKSDNTASLTISGLQAEDEADYYCCSFAGSYTYVFGTGTKVTVL
notes: source: expressed recombinantly with the original light chain and purified
[2]
  fold lower EC50 value than the hybridoma IgG: 18 fold
[1]
  fold lower affinity than the hybridoma IgG: 27 fold

B3: STAU-399 mAb (hybridoma IgG) (antibody, V domains shown)
VH: QVQLVQSGAEVKKPGSSLKVSCKVSGGNLRSYGISWVRQAPGQGLEWMGVIIPIFGTPTYAQKFQGRVTLAADDSNNIVFMELSSLRSEDTAVYYCARDWPSITVAVDATNYGMDVWGQGTLVTVSS
VL: QSALTQPRSVSGSPGQSVTISCTGTSNDVGYYDHVSWYQQHPGKAPKFIIYDVSKRPSGVPDRFSGSKSDNTASLTISGLQAEDEADYYCCSFAGSYTYVFGTGTKVTVL
notes: also called STAU-399 IgG
[1]
  binding result: binds

B4: STAU-281 mAb (IgG) (antibody, V domains shown)
VH: QVQLVQSGAEVKRPGSSVRVSCKDSGDSFRRYVINWVRQAPGQGLEWMGGIIPIFDKAKSVQKFQDRLTITADESTSTSYMELSSLTSEDTAVYYCARKEDGRRDDVFDIWGQGTLVTVSS
VL: EIVMTQSPATLSVSLGERATLSCRASHSVGSSLAWYQQKPGLAPRLLIYGVSTRATGIPARFSGSGSATEFTLTISSLQSEDLAAYHCQQYDNWPFTFGQGTKLEIK
[1]
  binding result: binds

B5: STAU-229 clonal variant 3 (recombinant mAb) (antibody, V domains shown)
VH: EVQLVQSGAEVKKPGATVKIPCQVSGYTFTDYYIHWVQQAPGKGLEWMGLVDPEDGETRYAEKFQGRVTITADTSTDTAYMEMSSLTSEDAAVYYCAKPHCTTSSCQRVSGYYFGMDVWGQGTTVTVSS
VL: QSALTQPPSASGSPGQSVTISCTGSSNDVGDYNFVSWYQQHPGKPPKLMIYEVTKRPSGVPDRFFGSKSGNTASLTVSGLQADDEADYYCSSYAGGNSVVFGGGTKLTVL
notes: as for B2
[1]
  Kd: 1.44 nM
  fold lower avidity than the hybridoma IgG: ~7 times

B6: STAU-229 mAb (hybridoma cell line-expressed IgG) (antibody, V domains shown)
VH: EVQLVQSGAEVKKPGATMKISCKVSGYPFTDYYMHWVQQAPGKGLEWMGLIDPEDGETNYAEKFQGRVTITADTSTDTVYMELSSLRSEDTAVYFCAKPHCSSRTCQRVSGYYFGMDVWGQGTLVTVSS
VL: QSALTQPPSASGSPGQSVTISCTGSSNDVGDYNFVSWYQQHPGKPPKLMIYEVTKRPSGVPDRFFGSKSGNTASLTVSGLQADDEADYYCSSYAGGNSVVFGGGTKLTVL
notes: also called STAU-229 IgG; hybridoma IgG
[1]
  binding result: binds
